# In patent US20260056186A1 (JIANGSU HENGRUI PHARMACEUTICALS, published 2026):
# T1: APRIL (Acro Biosystems, Cat: APL-H52D1) (UniProt O75888 115-250, limits assumed)
# T1 construct: also called ARPIL
# T1 sequence (looked up): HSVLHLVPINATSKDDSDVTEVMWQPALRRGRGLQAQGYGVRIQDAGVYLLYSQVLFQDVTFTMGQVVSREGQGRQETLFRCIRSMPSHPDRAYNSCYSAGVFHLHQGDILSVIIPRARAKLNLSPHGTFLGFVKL
# T2: recombinant human APRIL (R&D cat: 5860-AP-010/CF) (human, UniProt O75888 105-250, limits assumed)
# T2 sequence (looked up): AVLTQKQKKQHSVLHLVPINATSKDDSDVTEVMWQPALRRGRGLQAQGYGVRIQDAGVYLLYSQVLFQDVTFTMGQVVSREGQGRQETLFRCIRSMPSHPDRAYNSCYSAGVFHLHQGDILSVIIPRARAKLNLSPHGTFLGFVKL
# T3: IFNAR1 (human, UniProt P17181 28-557)
# T3 sequence (looked up): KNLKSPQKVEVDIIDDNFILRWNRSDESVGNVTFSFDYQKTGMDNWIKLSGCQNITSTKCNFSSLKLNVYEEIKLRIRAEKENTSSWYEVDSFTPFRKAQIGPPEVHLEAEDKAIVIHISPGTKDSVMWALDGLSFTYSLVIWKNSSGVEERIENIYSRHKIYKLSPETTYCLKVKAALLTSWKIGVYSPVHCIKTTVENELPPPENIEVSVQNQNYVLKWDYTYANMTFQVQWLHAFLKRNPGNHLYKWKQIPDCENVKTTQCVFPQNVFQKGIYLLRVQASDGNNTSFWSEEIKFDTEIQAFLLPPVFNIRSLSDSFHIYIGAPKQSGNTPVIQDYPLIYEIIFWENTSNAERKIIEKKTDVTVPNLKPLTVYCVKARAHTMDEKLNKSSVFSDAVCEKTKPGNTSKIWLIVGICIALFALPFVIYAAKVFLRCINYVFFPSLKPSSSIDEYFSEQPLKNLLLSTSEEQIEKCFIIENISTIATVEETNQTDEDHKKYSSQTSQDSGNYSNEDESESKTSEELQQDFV
# How the values were obtained:
# [1] = biological target: T4, BAFF (Sino biological, 10056-HNCH) (UniProt Q9Y275 134-285, biotinylated in the blocking ELISA (site not stated)); assay: ELISA, BAFF coated at 1 ug/mL, anti-human IgG-HRP
# T4 construct: also called BLyS
# T4 sequence (Q9Y275 134-285 limits assumed): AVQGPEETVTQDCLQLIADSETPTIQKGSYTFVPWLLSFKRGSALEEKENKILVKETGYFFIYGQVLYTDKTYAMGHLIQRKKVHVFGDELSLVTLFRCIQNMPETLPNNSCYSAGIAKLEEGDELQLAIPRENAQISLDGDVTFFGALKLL
# Description: (§1) In addition, the BAFF binding activity of the constructed TACI-Fc fusion proteins was assessed, and the TACI-Fc fusion proteins' functional activity of blocking the binding of BAFF to BAFF-R was assessed (see Example 1 for the experimental method).
# The BAFF binding activity of the TACI-Fc fusion proteins was assessed as follows: BAFF (Sino biological, 10056-HNCH) protein was diluted with a pH 7.4 PBS (BasalMedia, B320) buffer to 1 μg/mL, and the resulting dilution was added to a 96-well microplate (Corning, 3590) at 100 μL/well. The plate was incubated overnight at 4° C. After the liquid was discarded, 5% skim milk (BD, 232100), diluted with PBS, was added at 300 μL/well for blocking, and the plate was incubated at 37° C. for 2 h. After the blocking, the blocking solution was discarded, and the plate was washed 3 times with a PBST buffer (pH 7.4 PBS containing 0.10% tween-20). Serially diluted test antibody or fusion protein solutions were added at 100 μL/well, and the plate was incubated at 37° C. for 1 h. […] The plate was incubated at 37° C. for 1 h. After the plate was washed 3 times with PBST, the chromogenic substrate TMB (KPL, 5120-0077) was added at 100 μL/well. The plate was incubated at room temperature for 10-15 min, and 1 M H₂SO₄ was added at 50 μL/well to stop the reaction. The absorbance at 450 nm was measured using a microplate reader. Curves for the binding of the antibodies to the antigen were fitted using software, and EC₅₀ values were calculated.
# [2] = biological target: T4, BAFF (Sino biological, 10056-HNCH); assay: competition ELISA: fusion protein pre-mixed with biotinylated BAFF, added to coated BAFF-R
# Description: The above TACI-Fc fusion proteins' function of blocking the binding of BAFF to BAFF-R was further assessed as follows: The receptor protein was diluted with a pH 7.4 PBS (BasalMedia, B320) buffer to 2 μg/mL, and the resulting dilution was added to a 96-well microplate (Corning, 3590) at 100 μL/well. The plate was incubated overnight at 4° C. After the liquid was discarded, 1% Casein blocking solution (Thermo, 37528) was added at 200 μL/well for blocking, and the plate was incubated at 37° C. for 2 h. After the blocking, the blocking solution was discarded, and the plate was washed 3 times with a PBST buffer (pH 7.4 PBS containing 0.1% tween-20) and set aside for later use. A biotinylated ligand protein at a fixed concentration was mixed with a serially diluted antibody or fusion protein, and the mixture was pre-incubated at 37° C. for 30 min and then added to the blocked microplate. The plate was incubated at 37° C. for 1.5 h. After the incubation, the plate was washed 3 times with PBST, and streptavidin-HRP (Invitrogen, 434323, diluted in a 1:4000 ratio) was added at 100 μL/well. The plate was incubated at 37° C. for 1 h. The supernatant was removed. After the plate was washed 3 times with PBST, the chromogenic substrate TMB (KPL, 5120-0077) was added at 100 μL/well. The plate was incubated at room temperature for 10-15 min, and 1 M H₂SO₄ was added at 50 μL/well to stop the reaction. The absorbance at 450 nm was measured using a microplate reader. Curves for the inhibition of the binding of the ligand to the receptor were fitted using software, and IC₅₀ values were calculated. The sources of the ligand and the receptor protein used are as follows: BAFF (Sino biological, 10056-HNCH) and BAFF-R (Sino biological, 16079-H02H).
# as §1
# [3] = biological target: T1, APRIL (Acro Biosystems, Cat: APL-H52D1); assay: ELISA, APRIL coated at 1 ug/mL, anti-human Fc-HRP, OD450
# Description: The capabilities of fusion proteins B606401, B637302, B746201, and B805201 to bind to BAFF and APRIL were assessed by ELISA as follows:
# BAFF (PeproTech, Cat: 310-13) or ARPIL (Acro Biosystems, Cat: APL-H52D1) was diluted to 1 μg/mL with PBS, and a 96-well plate was coated with the dilution overnight at 4° C. The plate was washed with PBST and blocked with Blocking Buffer (PBST containing 1% BSA) at 37° C. for 1 h. The plate was tapped. The test antibodies were diluted with Blocking Buffer. Incubation was performed at 37° C. for 1.5 h. The plate was washed with PBST. An HRP-mouse anti-human Fc antibody (GenScript, Cat: A01854-200) was diluted with Blocking Buffer. Incubation was performed at 37° C. for 40 min. The plate was washed with PBST. 100 μL of TMB substrate solution (Biopanda, Cat: TMB-S-003) was added, and color development was performed at 37° C. for 3 min. 100 μL of ELISA stop solution (Solarbio, Cat: C1058) was added. OD450 was measured.
# [4] = biological target: T2, recombinant human APRIL (R&D cat: …); assay: cell-based or functional assay
# [5] = biological target: T3, IFNAR1; assay: cell-based or functional assay
# [6] = biological target: T5, recombinant human BAFF (R&D cat: 7537-BF-025/CF) (human, UniProt Q9Y275 134-285); assay: cell-based or functional assay
# T5 sequence (Q9Y275 134-285 limits assumed): as above
# [7] = biological target: T5, recombinant human BAFF (R&D cat: …); assay: cell-based or functional assay; remark: listed apart in the source
# [8] = biological target: T2, recombinant human APRIL (R&D cat: …); assay: cell-based or functional assay; remark: listed apart in the source
# [9] = biological target: T3, IFNAR1; assay: cell-based or functional assay; remark: listed apart in the source
binder,measurement,setting,value
"TACI-10-Fc (Fc fusion, TACI-9 truncated C-terminally by 1 amino acid, fused directly to Fc) SLSCRKEQGKFYDHLLRDCISCASICGQHPKQCAYFCENKDKTHTCPPCPAPEAEGAPSVFLFPPKPKDTLMISRTPEVTCVVVDVSHEDPEVKFNWYVDGVEVHNAKTKPREEQYNSTYRVVSVLTVLHQDWLNGKEYKCKVSNKALPSSIEKTISKAKGQPREPQVYTLPPSRDELTKNQVSLTCLVKGFYPSDIAVEWESNGQPENNYKTTPPVLDSDGSFFLYSKLTVDKSRWQQGNVFSCSVMHEALHNHYTQKSLSLSPGK",EC50,[1],0.561 nM
same,IC50,[2],2.7 nM
"B606401 (other, Fusion protein of anifrolumab and TACI-19-16 (C-terminus of the light chain)) heavy: EVQLVQSGAEVKKPGESLKISCKGSGYIFTNYWIAWVRQMPGKGLESMGIIYPGDSDIRYSPSFQGQVTISADKSITTAYLQWSSLKASDTAMYYCARHDIEGFDYWGRGTLVTVSSASTKGPSVFPLAPSSKSTSGGTAALGCLVKDYFPEPVTVSWNSGALTSGVHTFPAVLQSSGLYSLSSVVTVPSSSLGTQTYICNVNHKPSNTKVDKRVEPKSCDKTHTCPPCPAPEFEGGPSVFLFPPKPKDTLMISRTPEVTCVVVDVSHEDPEVKFNWYVDGVEVHNAKTKPREEQYNSTYRVVSVLTVLHQDWLNGKEYKCKVSNKALPASIEKTISKAKGQPREPQVYTLPPSRDELTKNQVSLTCLVKGFYPSDIAVEWESNGQPENNYKTTPPVLDSDGSFFLYSKLTVDKSRWQQGNVFSCSVMHEALHNHYTQKSLSLSPGK light: EIVLTQSPGTLSLSPGERATLSCRASQSVSSSFFAWYQQKPGQAPRLLIYGASSRATGIPDRLSGSGSGTDFTLTITRLEPEDFAVYYCQQYDSSAITFGQGTRLEIKRTVAAPSVFIFPPSDEQLKSGTASVVCLLNNFYPREAKVQWKVDNALQSGNSQESVTEQDSKDSTYSLSSTLTLSKADYEKHKVYACEVTHQGLSSPVTKSFNRGECGGGGSGGGGSSTSCREEQGEFYDHLLRDCISCASICGQHPKQCAAFCE",EC50,[3],0.607 nM
same,Emax,[3],2.81
same,"Flow cytometry proliferating B cell proportion (%), mean value, APRIL-induced, drug at 4.12 nM (IgG1: 55.30)",[4],52%
same,"Flow cytometry proliferating B cell proportion (%), mean value, APRIL-induced, drug at 12.35 nM (IgG1: 54.80)",[4],52.9%
same,"Flow cytometry proliferating B cell proportion (%), mean value, APRIL-induced, drug at 37.04 nM (IgG1: 56.63)",[4],53.6%
same,"Flow cytometry proliferating B cell proportion (%), mean value, APRIL-induced, drug at 111.11 nM (IgG1: 55.83)",[4],53.1%
same,"Flow cytometry proliferating B cell proportion (%), mean value, APRIL-induced, drug at 333.33 nM (IgG1: 56.27)",[4],50.6%
same,"Flow cytometry proliferating B cell proportion (%), mean value, APRIL-induced, drug at 1000.00 nM (IgG1: 53.27)",[4],40.3%
same,"IC50, inhibition of IFN-alpha-induced in vitro differentiation of B cells into plasma cells (CD27+ CD38+)",[5],17.4 nM
same,"Flow cytometry proliferating B cell proportion (%), mean value, BAFF-induced, drug at 10 nM (IgG1: 40.15)",[6],28.1%
same,"Flow cytometry proliferating B cell proportion (%), mean value, BAFF-induced, drug at 100 nM (IgG1: 40.60)",[6],25.3%
same,"Flow cytometry proliferating B cell proportion (%), mean value, BAFF-induced, drug at 1000 nM (IgG1: 33.97)",[6],17.9%
same,"CD27+ CD38+ plasma cell count, mean value, BAFF + APRIL-induced (both ligands together), drug at 100 nM (IgG1: 2496)",[7],549 cells
same,"CD27+ CD38+ plasma cell count, mean value, BAFF + APRIL-induced (both ligands together), drug at 1000 nM (IgG1: 2279)",[7],426 cells
same,"CD27+ CD38+ plasma cell count, mean value, BAFF + APRIL-induced (both ligands together), drug at 10 nM (IgG1: 2687)",[8],654 cells
same,"CD27+ CD38+ plasma cell count, mean value, BAFF + APRIL-induced (both ligands together), drug at 100 nM (IgG1: 2496)",[8],549 cells
same,"CD27+ CD38+ plasma cell count, mean value, BAFF + APRIL-induced (both ligands together), drug at 1000 nM (IgG1: 2279)",[8],426 cells
same,"IC50 (nM), inhibition of the activity of type I interferons (IFN-beta, HEK-Blue IFN-alpha/beta reporter cells)",[9],1.94 nM
TACI-11-Fc (Fc fusion) SLSCRKEQGKFYDHLLRDCISCASICGQHPKQCAYFCENDKTHTCPPCPAPEAEGAPSVFLFPPKPKDTLMISRTPEVTCVVVDVSHEDPEVKFNWYVDGVEVHNAKTKPREEQYNSTYRVVSVLTVLHQDWLNGKEYKCKVSNKALPSSIEKTISKAKGQPREPQVYTLPPSRDELTKNQVSLTCLVKGFYPSDIAVEWESNGQPENNYKTTPPVLDSDGSFFLYSKLTVDKSRWQQGNVFSCSVMHEALHNHYTQKSLSLSPGK,EC50,[1],0.584 nM
same,IC50,[2],2.62 nM
"TACI-12-Fc (Fc fusion, TACI-9 truncated C-terminally by 3 amino acids, fused directly to Fc) SLSCRKEQGKFYDHLLRDCISCASICGQHPKQCAYFCEDKTHTCPPCPAPEAEGAPSVFLFPPKPKDTLMISRTPEVTCVVVDVSHEDPEVKFNWYVDGVEVHNAKTKPREEQYNSTYRVVSVLTVLHQDWLNGKEYKCKVSNKALPSSIEKTISKAKGQPREPQVYTLPPSRDELTKNQVSLTCLVKGFYPSDIAVEWESNGQPENNYKTTPPVLDSDGSFFLYSKLTVDKSRWQQGNVFSCSVMHEALHNHYTQKSLSLSPGK",EC50,[1],0.894 nM
same,IC50,[2],3.86 nM
